The source of these data is patent publication US20120277286A1, “COMPOSITIONS AND METHODS FOR THE TREATMENT OR PREVENTION OF MITOCHONDRIAL DISEASES” (The Government of the USA, as represented by the Secretary, …, priority 2009, published 2012).

Common to all, as to format: cell-based
The subject of test [1] is HeLa cells. Kind of test: Parkin colocalization with mitochondria scored by confocal microscopy. The note with it: HeLa cells, 2 mM paraquat, 24 hours. As for the experimental part: Cultured cells seeded in borosilicate chamber slides (Thermo Fisher Scientific) were transfected or cotransfected with YFP-Parkin, ECFP-Parkin, mCherry-Parkin, DsRed-Mito (Clontech Laboratories, Inc.), pcDNA3.1 (Invitrogen), vMIA, and/or Drp1K38A constructs using Fugene 6 (Roche). Parkin-myc was a gift from M. Cookson (National Institutes of Health, Bethesda, Md.). Cells were fixed 12-24 hours after transfection with 4% paraformaldehyde in PBS. Cells were stained with following primary antibodies: mouse monoclonal cytochrome c (BD), rabbit polyclonal Tom20 (Santa Cruz Biotechnology, Inc.), mouse monoclonal Parkin PRK8 (Santa Cruz Biotechnology, Inc.), rabbit polyclonal PMP70 (Invitrogen), and/or mouse monoclonal TRAP1 (Abcam); and with the following secondary antibodies: mouse and/or rabbit Alexa 488, 594, and 633 (Invitrogen). For assessment of mitochondrial membrane potential, cells were pulsed with 50 nM Mito-Tracker red (Invitrogen) for 15 min, washed, and incubated for an additional 10 minutes before fixation or imaging. For assessment of cell metabolic potential, cell nuclei were stained with Hoechst 33342 (Invitrogen).
Fixed cells and live cells in the FLIP assay were imaged using an inverted microscope (LSM510 Meta; Carl Zeiss, Inc.) with a 63×/1.4 oil DIC Plan Apo objective at 25° C. and 37° C., respectively. For the FLIP assay, a bleach region of interest (ROI) occupying approximately one eighth of the cell was positioned over a relatively mitochondria-free portion of the cytosol. Cells were alternately bleached (488 nm using a 30-mW argon laser at 75% power and 100% transmission for 150 iterations) and imaged (488 nm at 75% power and 2% transmission) for 10 minutes (—60 cycles over the length of the experiment). Two channel prebleach and postbleach images were obtained with 488 and 594 lasers to assess the position of mitochondria before and after bleaching. Circular ROIs with diameters of ˜1 and 5 μm, respectively, were placed over the mitochondria and cytosol of the target cell, and an ROI of 10 μm was placed over the control cell. Imaging of YFP-Parkin translocation in live HeLa cells was performed on a live cell imager system (UltraView LCI; PerkinElmer) at 35° C. with a 100×/1.45 α-Plan-Fluor objective.
Image contrast and brightness were adjusted in Photoshop (Adobe). Colocalization was assessed with line scans using MetaMorph (MDS Analytical Technologies). For analysis of mitochondrial membrane potential in cells, mitochondrial voxels in each image (the cytochrome c channel threshold was ≧400 au) were segregated into Parkin-positive (the YFP-Parkin channel threshold was ≧1,100 au) or Parkin-negative subsets, and MitoTracker intensity for each voxel was measured using Volocity software (Improvision). For each cell, the mean MitoTracker intensity per voxel was calculated for the Parkin-positive and Parkin-negative subsets. The difference in mean Mito-Tracker intensity between the Parkin-positive and Parkin-negative subsets was calculated using a paired t test. Western blotting HeLa cells stably expressing YFP-Parkin, HEK293 cells, and rat cortical neurons 2 days in vitro were harvested and fractionated as described previously (Karbowski et al., J. Cell Biol. 178: 71-84, 2007). Samples were run on SDS-PAGE and immunoblotted with the following antibodies: polyclonal rabbit anti-GFP (Invitrogen), mouse monoclonal anti-Parkin (PRK8), and mouse monoclonal anti-Porin 31HL (EMD).
(§1) Confocal microscopy of fixed samples, scoring of Parkin recruitment and Parkininduced mitophagy, and live cell imaging were performed as described previously (Narendra (2008) J Cell Biol 183: 795-803). Experiments in Mfn1/2 null cells were performed as described previously with minor modifications.
Confocal microscopy of fixed samples, scoring of Parkin recruitment and Parkin-induced mitophagy, and live cell imageing were performed as described previously (Narendra (2008) J Cell Biol 183: 795-803). […]

The test system of test [2] is HeLa cells. Put plainly: PINK1-YFP imaging and colocalization in HeLa cells. As to conditions: 2 mM paraquat, 16 hours. The method, then: as §1
Confocal microscopy of fixed samples, scoring of Parkin recruitment and Parkin-induced mitophagy, and live cell imageing were performed as described previously (Narendra (2008) J Cell Biol 183: 795-803). Experiments in Mfn1/2 null cells were performed as described previously with minor modifications described in the supplemental methods (Narendra (2008) J Cell Biol 183: 795-803).

The next test has as its system PINK1. Kind of test: PINK1 cleavage pattern by immunoblotting (Examples 4 and 5). The note with it: HeLa; for levels of FL and/or ΔMTS-PINK1: absence of CCCP or MG132; for 52 kDa fragment of PINK1: absence of MG132 treatment. As for the experimental part: PARL siRNA (5′-[…]-C′) were synthesized by Qiagen. In order to achieve efficient knockdown of PARL, cells were transfected twice over a period of 96 hrs. PINK1-V5/His was a gift from M. Cookson (National Institute of Health, Bethesda, Md.). For site-directed mutagenesis, primers were designed using Primer X, web-based mutagenic primer design program (http://www.bioinformatics.org/primerx/), and produced by Operon. 15 rounds of PCR reactions were performed using Phusion DNA polymerase (Finnzymes) and WT PINK1-YFP constructs as a template. Introduction of point mutations were confirmed by sequencing.
(§2) Cells were cultured in borosilicated chamber slides for imaging, 6-well plates for whole cell lysates, and 100 or 150 mm culture dish for subcellular fractionation. One day after seeding, cells were transfected with indicated constructs using Fugene HD (Roche) or Lipofectamine 2000 (Invitrogen) according to the manufacturer's guidelines.
For whole cell lysates, cells were washed twice with cold-PBS and then directly lysed with 1× sample buffer. For mitochondrial fraction, cells were fractionated as described previously (Narendra et al., 2008) and below, and then mitochondrial pellets were lysed with 1× sample buffer. 20 μg of proteins were separated on 4-12% Tris-glycine or Bis-Tris SDS-PAGE. The following antibodies were used: anti-PINK1 (Novus Biologicals), anti-PARL N-terminal (a gift from L. Pellegrini), anti-Tom20 (Santa Cruz Biotechnology, Inc.), anti-AIF (Sigma-Aldrich) and antiHtra2/Omi (R&D systems) polyclonal antibodies; anti-VDAC (Calbiochem), anti-Tubulin, anti-βactin (Sigma-Aldrich), anti-Hsp70 (Cell Signaling Technologies), anti-Tom20 (BD), anti-Tim23 and anti-cytochrome C (BD) monoclonal antibodies.

For test [3], the system named is HeLa cells. Put plainly: Mitochondrial translocation of Parkin by imaging (Examples 4 and 5). As to conditions: HeLa cells or PINK1 KO cells, without CCCP. The method, then: as §2
For immunocytochemistry, cultured cells in borosilicated chamber slides were fixed with 4% paraformaldehyde in PBS (USB) and permeabilized with the indicated detergent. After 30 min blocking with 10% BSA in PBS, cells were stained with the following primary antibodies: antiTom20 polyclonal antibody (Santa Cruz Biotechnology, Inc.) and anti-cytochrome C monoclonal antibody (BD), or anti-Tom20 monoclonal antibody (BD) and anti-GFP polyclonal antibody (Invitrogen) and then with the following secondary antibodies: goat anti-mouse/rabbit IgG antibody conjugated with Alexa Fluor 594/647, respectively. In case of live cell imaging, cells were pulsed with 600 nM TMRE for 5 min to evaluate mitochondrial membrane potential or 10 nM Mitotracker Red for 30 min to see the mitochondrial morphology. Cells were imaged using an inverted microscope (LSM510 Meta; Carl Zeiss) with 63×/1.4 oil DIC Plan Apo objective. Image contrast and brightness were adjusted in LSM image browser (Carl Zeiss).

For `C[n+]1ccc(-c2cc[n+](C)cc2)cc1` [paraquat, reference compound], the “YFP-Parkin recruitment to mitochondria” value in the test with HeLa cells [1] is reported as “recruited to depolarized mitochondria”; with HeLa cells [1] (listed as Paraquat), “triggers Parkin recruitment to mitochondria”. Moreover, the “average pearson coefficient PINK1-YFP / MTR” value in the test with HeLa cells [2] is 0.26±0.13. The “average pearson coefficient PINK1-YFP / cytochrome c” value with HeLa cells [2] came out at 0.58±0.11.

B1: G97F: PINK1-YFP transmembrane domain point mutant (protein, UniProt Q9BXM7 78-581, looked up, variant G97F)
Serine/threonine-protein …: AARLQRQFVVRAWGCAGPCFRAVFLAFGLGLGLIEEKQAESRRAVSACQEIQAIFTQKSKPGPDPLDTRRLQGFRLEEYLIGQSIGKGCSAAVYEATMPTLPQNLEVTKSTGLLPGRGPGTSAPGEGQERAPGAPAFPLAIKMMWNISAGSSSEAILNTMSQELVPASRVALAGEYGAVTYRKSKRGPKQLAPHPNIIRVLRAFTSSVPLLPGALVDYPDVLPSRLHPEGLGHGRTLFLVMKNYPCTLRQYLCVNTPSPRLAAMMLLQLLEGVDHLVQQGIAHRDLKSDNILVELDPDGCPWLVIADFGCCLADESIGLQLPFSSWYVDRGGNGCLMAPEVSTARPGPRAVIDYSKADAWAVGAIAYEIFGLVNPFYGQGKAHLESRSYQEAQLPALPESVPPDVRQLVRALLQREASKRPSARVAANVLHLSLWGEHILALKNLKLDKMVGWLLQQSAATLLANRLTEKCCVETKMKMLFLANLECETLCQAALLLCSWRAAL
modifications: YFP fusion
notes: PINK1-YFP transmembrane domain point mutant
On to B1, for which the “levels of FL and/or ΔMTS-PINK1” value in the test on PINK1 is “dramatically increased levels”.

B2: A103W: PINK1-YFP transmembrane domain point mutant (protein, UniProt Q9BXM7 78-581, looked up, variant A103W)
Serine/threonine-protein …: AARLQRQFVVRAWGCAGPCGRAVFLWFGLGLGLIEEKQAESRRAVSACQEIQAIFTQKSKPGPDPLDTRRLQGFRLEEYLIGQSIGKGCSAAVYEATMPTLPQNLEVTKSTGLLPGRGPGTSAPGEGQERAPGAPAFPLAIKMMWNISAGSSSEAILNTMSQELVPASRVALAGEYGAVTYRKSKRGPKQLAPHPNIIRVLRAFTSSVPLLPGALVDYPDVLPSRLHPEGLGHGRTLFLVMKNYPCTLRQYLCVNTPSPRLAAMMLLQLLEGVDHLVQQGIAHRDLKSDNILVELDPDGCPWLVIADFGCCLADESIGLQLPFSSWYVDRGGNGCLMAPEVSTARPGPRAVIDYSKADAWAVGAIAYEIFGLVNPFYGQGKAHLESRSYQEAQLPALPESVPPDVRQLVRALLQREASKRPSARVAANVLHLSLWGEHILALKNLKLDKMVGWLLQQSAATLLANRLTEKCCVETKMKMLFLANLECETLCQAALLLCSWRAAL
modifications: C-terminal YFP fusion
notes: as for B1
As for B2, in the test with PINK1, the “52 kDa fragment of PINK1” value is “stabilize the 52 kDa fragment”. For the same molecule, the “mitochondrial translocation of Parkin induced by PINK1 mutant” value (shortened to “mitochondrial translocation”) in the test with HeLa cells [3] is recorded as “did not recruit Parkin”.

B3: R98F: PINK1-YFP transmembrane domain point mutant (protein, UniProt Q9BXM7 78-581, looked up, variant R98F)
Serine/threonine-protein …: AARLQRQFVVRAWGCAGPCGFAVFLAFGLGLGLIEEKQAESRRAVSACQEIQAIFTQKSKPGPDPLDTRRLQGFRLEEYLIGQSIGKGCSAAVYEATMPTLPQNLEVTKSTGLLPGRGPGTSAPGEGQERAPGAPAFPLAIKMMWNISAGSSSEAILNTMSQELVPASRVALAGEYGAVTYRKSKRGPKQLAPHPNIIRVLRAFTSSVPLLPGALVDYPDVLPSRLHPEGLGHGRTLFLVMKNYPCTLRQYLCVNTPSPRLAAMMLLQLLEGVDHLVQQGIAHRDLKSDNILVELDPDGCPWLVIADFGCCLADESIGLQLPFSSWYVDRGGNGCLMAPEVSTARPGPRAVIDYSKADAWAVGAIAYEIFGLVNPFYGQGKAHLESRSYQEAQLPALPESVPPDVRQLVRALLQREASKRPSARVAANVLHLSLWGEHILALKNLKLDKMVGWLLQQSAATLLANRLTEKCCVETKMKMLFLANLECETLCQAALLLCSWRAAL
modifications: YFP fusion
notes: as for B1
For the molecule B3, the “levels of FL and/or ΔMTS-PINK1” value in the test on PINK1 is “dramatically increased levels”. Moreover, the “mitochondrial translocation” value with HeLa cells [3] is “did not induce”.

B4: G105W: PINK1-YFP transmembrane domain point mutant (protein, UniProt Q9BXM7 78-581, looked up, variant G105W)
Serine/threonine-protein …: AARLQRQFVVRAWGCAGPCGRAVFLAFWLGLGLIEEKQAESRRAVSACQEIQAIFTQKSKPGPDPLDTRRLQGFRLEEYLIGQSIGKGCSAAVYEATMPTLPQNLEVTKSTGLLPGRGPGTSAPGEGQERAPGAPAFPLAIKMMWNISAGSSSEAILNTMSQELVPASRVALAGEYGAVTYRKSKRGPKQLAPHPNIIRVLRAFTSSVPLLPGALVDYPDVLPSRLHPEGLGHGRTLFLVMKNYPCTLRQYLCVNTPSPRLAAMMLLQLLEGVDHLVQQGIAHRDLKSDNILVELDPDGCPWLVIADFGCCLADESIGLQLPFSSWYVDRGGNGCLMAPEVSTARPGPRAVIDYSKADAWAVGAIAYEIFGLVNPFYGQGKAHLESRSYQEAQLPALPESVPPDVRQLVRALLQREASKRPSARVAANVLHLSLWGEHILALKNLKLDKMVGWLLQQSAATLLANRLTEKCCVETKMKMLFLANLECETLCQAALLLCSWRAAL
modifications: C-terminal YFP fusion
notes: as for B1
On to B4, for which the “52 kDa fragment of PINK1” value with PINK1 is recorded as “stabilize the 52 kDa fragment”. The “mitochondrial translocation” value in the test with HeLa cells [3] is recorded as “did not recruit Parkin”.
